# In US20240131068A1 (KITE PHARMA, published 2024):
# T1: native CD19 expressed on NALM6 tumor cells (UniProt P15391 20-556)
# T1 construct: whole, on cells; also called CD19^+ NALM6; NALM6-wt
# T1 sequence (looked up): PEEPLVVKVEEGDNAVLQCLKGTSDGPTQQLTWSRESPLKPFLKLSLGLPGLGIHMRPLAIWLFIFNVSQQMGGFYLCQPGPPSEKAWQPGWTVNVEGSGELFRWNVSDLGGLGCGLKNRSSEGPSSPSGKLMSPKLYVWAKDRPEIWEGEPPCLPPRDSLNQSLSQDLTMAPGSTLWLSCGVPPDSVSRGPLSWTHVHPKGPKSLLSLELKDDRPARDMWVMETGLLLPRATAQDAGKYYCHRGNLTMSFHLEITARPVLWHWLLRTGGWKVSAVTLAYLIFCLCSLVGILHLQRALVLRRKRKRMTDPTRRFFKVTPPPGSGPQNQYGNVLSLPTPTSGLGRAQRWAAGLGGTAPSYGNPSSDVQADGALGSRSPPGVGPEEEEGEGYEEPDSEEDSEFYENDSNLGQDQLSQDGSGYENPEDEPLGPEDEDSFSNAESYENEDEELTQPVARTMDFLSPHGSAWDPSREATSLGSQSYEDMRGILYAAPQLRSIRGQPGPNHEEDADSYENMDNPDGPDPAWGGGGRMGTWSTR
# B1: CD19 E7 scFv (P4) (scFv)
# scFv: DIQMTQSPSSLSASVGDRVTITCRASQDITRYLNWYQQKPGKAPKLLIYAASSLQSGVPSRFSGSGSGTDFTLTISSLQPEDFATYYCQQSYSYPPTFGQGTKVEIKGGGGSGGGGSGGGGSQVQLVESGGGVVQPGRSLRLSCAASGFTFRDYGMHWVRQAPGKGLEWVAVISYEGSNEYYADSVKGRFTISRDNSKNTLYLQMNSLRAEDTAVYYCARDRGFAGWYDYAFDPWGQGTLVTVSS
# notes: scFv clone from the display library, screened as a library clone; also called 45; clone 45
# B2: CD19 18 scFv (P11) (scFv)
# scFv: QSVLTQPPSVSGAPGQRVTISCTGSSSNIGAGYDVHWYQQLPGTAPKLLIYGTKNRPSGVPDRFSGSKSGTSASLAITGLQAEDEADYYCQSYDVRLKGWVFGGGTKLTVLGGGGSGGGGSGGGGSQLQLQESGPGLVKPSETLSLTCTVSGGSITSSSYYWGWIRQPPGKGLEWIGSIYYTGTTYYNPSLKSRVTISVDTSKNQFSLKLSSVTAADTAVYYCARYVGLSGGFDYWGQGTLVTVSS
# notes: scFv clone from the display library, screened as a library clone; also called 52; clone 52
# B3: CD19 23 scFv (P12) (scFv)
# scFv: DIQMTQSPSSLSASVGDRVTITCRASQSIYSYLNWYQQKRGKAPKLLIYDASSLQSGVPSRFSGSGSGTDFTLTISSLQPEDFATYYCQQSYTAPPTFGQGTKVEIKGGGGSGGGGSGGGGSEVQLLESGGGLVQPGGSLRLSCAASGFTFSNYAMSWVRQAPGKGLEWVSAISESGHGTYYADSVKGRFTISRDNSKNTLYLQMNSLRAEDTAVYYCARLDWAGFDVWGQGTLVTVSS
# notes: scFv clone from the display library, screened as a library clone; also called 53; clone 53
# B4: CD19 11 scFv (P7) (scFv)
# scFv: DIQMTQSPSSLSASVGDRVTITCRASQSISSYLNWYQQKPGKAPKLLIYAASSLQSGVPSRFSGSGSGTDFTLTISSLQPEDFATYYCQQTGAVPYTFGQGTKVEIKGGGGSGGGGSGGGGSEVQLLESGGGLVQPGGSLRLSCAASGFTFRDYAMSWVRQAPGKGLEWVSAISESGIDTYYADSVKGRFTISRDNSKNTLYLQMNSLRAEDTAVYYCARVAGYDSDSSTYYDYMDVWGQGTLVTVSS
# notes: scFv clone from the display library, screened as a library clone; also called 48; clone 48
# B5: CD19 7 scFv (P5) (scFv)
# scFv: DIQMTQSPSSLSASVGDRVTITCRASQSISKYLNWYQQKPGKAPKLLIYDASSLQSGVPSRFSGSGSGTDFTLTISSLQPEDFATYYCQQSYTIPLTFGQGTKVEIKGGGGSGGGGSGGGGSQVQLVQSGAEVKKPGSSVKVSCKASGGTFSSYAFSWVRQAPGQGLEWMGGIVPLFGAVEYAQKFQGRVTITADESTSTAYMELSSLRSEDTAVYYCAREKGFYRYFDHWGQGTLVTVSS
# notes: scFv clone from the display library, screened as a library clone; also called 46; clone 46
# B6: CD19 14 scFv (P8) (scFv)
# scFv: DIQMTQSPSSLSASVGDRVTITCRASQSISNYLNWYQQKPGKAPKLLIYAASSLQSGVPSRFSGSGSGTDFTLTISSLQPEDFATYYCQQAYSAPITFGQGTKVEIKGGGGSGGGGSGGGGSEVQLLESGGGLVQPGGSLRLSCAASGFTFGDYAMSWVRQAPGKGLEWVSAISRGGHGTYYADSVKGRFTISRDNSKNTLYLQMNSLRAEDTAVYYCARLVGYGLDYWGQGTLVTVSS
# notes: scFv clone from the display library, screened as a library clone; also called 49; clone 49
# B7: CD19 15 scFv (P9) (scFv)
# scFv: DIQMTQSPSSLSASVGDRVTITCRASQPIRPYLNWYQQKPGKAPKLLIYDASSLQSGVPSRFSGSGSGTDFTLTISSLQPEDFATYYCQQSYSAPYTFGQGTKVEIKGGGGSGGGGSGGGGSEVQLLESGGGLVQPGGSLRLSCAASGFTFSSYAMSWVRQAPGKGLEWVSVISGGGANTYYADSVKGRFTISRDNSKNTLYLQMNSLRAEDTAVYYCARDWRYFDHWGQGTLVTVSS
# notes: scFv clone from the display library, screened as a library clone; also called 50; clone 50
# B8: CD19 10 scFv (P6) (scFv)
# scFv: DIQMTQSPSSLSASVGDRVTITCRASQTISRYLNWYQQKPGKAPKLLIYAASSLQSGVPSRFSGSGSGTDFTLTISSLQPEDFATYYCQQSYRPPLTFGQGTKVEIKGGGGSGGGGSGGGGSEVQLLESGGGLVQPGGSLRLSCAASGFTFSSYAMSWVRQAPGKGLEWVSTISAGGHGTYYADSVKGRFTISRDNSKNTLYLQMNSLRAEDTAVYYCARGAGYFDYWGQGTLVTVSS
# notes: scFv clone from the display library, screened as a library clone; also called 47; clone 47
# B9: CD19 16 scFv (P10) (scFv)
# scFv: QSVLTQPPSVSGAPGQRVTISCTGSSSNIGAGYDVHWYQQLPGTAPKLLIYGNNNRPSGVPDRFSGSKSGTSASLAITGLQAEDEADYYCQSYDVSLGVWVFGGGTKLTVLGGGGSGGGGSGGGGSQLQLQESGPGLVKPSETLSLTCTVSGGSISSPSYYWGWIRQPPGKGLEWIGSIYYTGATYYNPSLKSRVTISVDTSKNQFSLKLSSVTAADTAVYYCARYGPAGVGFDYWGQGTLVTVSS
# notes: scFv clone from the display library, screened as a library clone; also called 51; clone 51
# Target: SIGLEC 7 (UniProt Q9Y286 19-467, limits assumed)
# Sequence (Q9Y286 19-467 limits assumed): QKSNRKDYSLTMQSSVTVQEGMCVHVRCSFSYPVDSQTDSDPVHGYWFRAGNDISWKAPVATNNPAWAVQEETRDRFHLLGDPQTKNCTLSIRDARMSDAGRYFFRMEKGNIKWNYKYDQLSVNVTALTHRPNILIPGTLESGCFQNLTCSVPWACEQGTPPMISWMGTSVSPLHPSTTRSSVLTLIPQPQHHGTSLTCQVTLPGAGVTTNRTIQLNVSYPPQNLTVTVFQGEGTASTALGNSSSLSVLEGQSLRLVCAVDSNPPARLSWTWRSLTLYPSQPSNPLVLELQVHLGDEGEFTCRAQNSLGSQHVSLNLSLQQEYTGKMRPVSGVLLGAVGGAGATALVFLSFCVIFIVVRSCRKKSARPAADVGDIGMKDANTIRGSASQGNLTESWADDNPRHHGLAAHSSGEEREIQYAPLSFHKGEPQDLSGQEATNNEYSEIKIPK
# Assay: counter-selection of scFv clones against baculovirus and SIGLEC 7, 8 and 9
# Text: (§1) These up to 30 scFv clones were further screened based on their ability to bind baculovirus or SIGLEC. Clones that bound biotinylated baculovirus or SIGLEC 7, 8 and 9 were removed from consideration.
row,binding result,Binder
1,no binding,B1

# Target: SIGLEC 8 (UniProt Q9NYZ4 17-499, limits assumed)
# Sequence (Q9NYZ4 17-499 limits assumed): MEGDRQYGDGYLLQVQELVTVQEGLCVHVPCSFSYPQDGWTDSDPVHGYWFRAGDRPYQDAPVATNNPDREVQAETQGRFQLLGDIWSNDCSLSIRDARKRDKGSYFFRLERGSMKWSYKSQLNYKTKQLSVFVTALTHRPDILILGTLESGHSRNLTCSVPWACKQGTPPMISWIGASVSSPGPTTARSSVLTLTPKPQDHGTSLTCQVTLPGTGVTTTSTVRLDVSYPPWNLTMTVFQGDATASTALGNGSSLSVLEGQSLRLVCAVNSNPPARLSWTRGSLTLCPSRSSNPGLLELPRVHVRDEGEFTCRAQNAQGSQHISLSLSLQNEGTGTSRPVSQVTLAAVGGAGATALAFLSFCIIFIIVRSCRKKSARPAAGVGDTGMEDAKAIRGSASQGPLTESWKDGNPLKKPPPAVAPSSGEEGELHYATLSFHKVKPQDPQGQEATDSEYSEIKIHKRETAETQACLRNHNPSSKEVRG
# Assay: as above
# Text: as §1
row,binding result,Binder
1,no binding,B1

# Target: SIGLEC 9 (UniProt Q9Y336 18-463, limits assumed)
# Sequence (Q9Y336 18-463 limits assumed): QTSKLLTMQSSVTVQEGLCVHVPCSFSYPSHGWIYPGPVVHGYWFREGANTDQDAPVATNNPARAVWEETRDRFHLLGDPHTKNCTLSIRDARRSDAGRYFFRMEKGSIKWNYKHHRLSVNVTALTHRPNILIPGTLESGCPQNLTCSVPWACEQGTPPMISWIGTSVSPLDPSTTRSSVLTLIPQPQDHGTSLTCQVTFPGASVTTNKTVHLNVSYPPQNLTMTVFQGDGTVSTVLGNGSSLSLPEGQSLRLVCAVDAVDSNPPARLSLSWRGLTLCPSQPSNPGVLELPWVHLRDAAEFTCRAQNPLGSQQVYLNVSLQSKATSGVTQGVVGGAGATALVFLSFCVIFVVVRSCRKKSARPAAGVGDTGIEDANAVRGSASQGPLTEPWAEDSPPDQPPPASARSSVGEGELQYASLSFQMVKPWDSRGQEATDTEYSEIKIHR
# Assay: as above
# Text: as §1
row,binding result,Binder
1,no binding,B1

# Target: T1, native CD19 expressed on NALM6 tumor …
# Assay: screen of scFv clones on CD19^+ NALM6 cells, Nalm6-CD19KO cells as negative control
# Text: To ensure that the up to (30) clones could recognize native CD19 expressed on tumor cells, the clones (scFv) were also screened against NALM6 tumor cell line positive (+) CD19 expression (NALM6 cell line+CD19). CD19 knockout Nalm6 cell line (NALM6 cell line⁻ CD1; or CD19KO Nalm6 cell line) were used as a negative control for the selection. CD19KO Nalm6 cell lines used for the screen were engineered CRISPR knocked-out (KO) Nalm6-CD19KO cells. Clones that bound CD19⁺ NALM6 tumor cells, but not CD19-NALM6 tumor cells (CD19K0) were selected (Step 4).
row,binding result,Binder
1,binds,B2
2,binds,B3
3,binds,B4
4,binds,B5
5,binds,B6
6,binds,B7
7,binds,B1
8,binds,B8
9,binds,B9
